These results are taken from patent US20070048801A1.

The target of the experiment is CXCR3 from Mus musculus (NCBI accession no. NP_034040) (Mus musculus) (UniProt O88410). Briefly: cell-based or functional assay.
Chain of UniProt O88410 (O88410 whole entry): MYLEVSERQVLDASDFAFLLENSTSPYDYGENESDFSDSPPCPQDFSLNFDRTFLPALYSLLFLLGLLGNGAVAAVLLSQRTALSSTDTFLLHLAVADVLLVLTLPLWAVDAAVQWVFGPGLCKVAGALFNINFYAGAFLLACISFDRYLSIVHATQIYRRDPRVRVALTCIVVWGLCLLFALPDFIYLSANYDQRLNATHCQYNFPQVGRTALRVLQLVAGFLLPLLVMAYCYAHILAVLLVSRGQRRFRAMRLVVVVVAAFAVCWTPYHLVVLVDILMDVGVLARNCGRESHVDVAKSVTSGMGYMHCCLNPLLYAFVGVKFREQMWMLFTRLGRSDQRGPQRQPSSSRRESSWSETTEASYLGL

With “PT-gliadin (gliadin digested with pepsin and trypsin) (peptide)”, the TEER, WT mouse intestinal segments (n=10), baseline came to 24.1; the TEER, WT mouse intestinal segments (n=10), post-gliadin exposure worked out at 14.7; the zonulin release, WT mouse intestinal segments (n=10), baseline (ng/mg protein) was 0.33; the zonulin release, WT mouse intestinal segments (n=10), post-gliadin exposure (ng/mg protein) was found to be 0.61.
